Reference: patent US20180201655A1 (University of California, published 2018)

B1: R4-1 (other)
chain: MKTGEQRVKIATLLSENEKKIVDKASQDLWRRRPDFIAPGGIAFSQRERALCLRDYRWYLHLITFCLLAGDKDPIESIGLIGIREMYNSLGVPVPGMMESIRCLKEASLSLLDEEDAKETAPYFDYIIKAMS
modifications: biliverdin (BV) covalently attached
notes: Evolved APCα fluorescent protein of round 4; runs as a tetramer on native PAGE; also called R4-1+BV; not shown: polyhistidine tag on the C terminus
B2: R10-10 (other)
chain: MKTCEQRVNIATLLTENKKKIVDKASQDLWRRHPDLIAPGGIAFSQRDRALCLRDYGWYLHLITFCLLAGDKGPIESIGLIGIREMYNSLGVPVPAMMESIRCLKEASLSLLDEEDANETAPYFDYIIKAMS
modifications: biliverdin (BV) covalently attached
notes: Evolved APCα fluorescent protein of round 10; runs as a homodimer on native PAGE; also called R10-10+BV; not shown: polyhistidine tag on the C terminus
B3: smURFP + BVMe2 (other)
chain: MKTSEQRVNIATLLTENKKKIVDKASQDLWRRHPDLIAPGGIAFSQRDRALCLRDYGWFLHLITFCLLAGDKGPIESIGLISIREMYNSLGVPVPAMMESIRCLKEASLSLLDEEDANETAPYFDYIIKAMS
modifications: biliverdin dimethyl ester (BVMe2) attached, a single BVMe2 per homodimer
notes: smURFP purified without chromophore, BVMe2 added in vitro; detected by mass spectrometry as the homodimer + BVMe2; also called smURFP+1BVMe2; not shown: polyhistidine tag on the C terminus
B4: small ultra-red fluorescent protein (smURFP) + BV (other)
chain: MKTSEQRVNIATLLTENKKKIVDKASQDLWRRHPDLIAPGGIAFSQRDRALCLRDYGWFLHLITFCLLAGDKGPIESIGLISIREMYNSLGVPVPAMMESIRCLKEASLSLLDEEDANETAPYFDYIIKAMS
modifications: biliverdin (BV) covalently attached at C52; predominant species has one BV per homodimer
notes: purified from E. coli co-expressing HO-1; runs as a homodimer on native PAGE; not shown: polyhistidine tag on the C terminus

What was measured:
[1] = biological target: the molecule itself; test: native PAGE, self-association (tetramer)
Excerpt: (§1) FIG. 9A-FIG. 9C: Quaternary structure characterization of smURFP and TDsmURFP. (A) Native PAGE gel of APCαFPs. Monomeric IFP1.4 (36.5 kD) was ran as a reference. R4-1 runs as a tetramer, while R10-10 and smURFP run as a homodimer (32 kD). (B) Native PAGE gel of TDsmURFP. Monomeric IFP1.4 (36.5 kD) and tandem dimer Tomato (tdTomato, 54.2 kD) were ran as references. TDsmURFP (32.9 kD) runs slightly higher than smURFP due to 23 amino acid linker. (C) SDS denaturing PAGE gel of smURFP and TDsmURFP. BV was imaged by addition of zinc. All FPs show correct MW and covalently attached BV. […] (A-C) Each FP was run on two lanes. EX is excitation maximum and EM is emission maximum.
(§2) smURFP ran as a 32-kD homodimer on a native gel. R10-10 ran as a32-kD homodimer, while R4-1 was atetramer (FIG. 9a). Tandem dimer smURFP (TDsmURFP) was created by adding a 23-amino-acid linker between subunits and had ˜70% fluorescence of smURFP in bacteria (FIG. 2c). TDsmURFP (33 kD) ran near smURFP. tdTomato (54 kD) and IFP1.4 (37 kD) confirmed the dimeric nature of smURFP (FIG. 9a,b). To confirm covalent BV attachment, the FPs were run on a denaturing gel, and BV was detected with zinc²⁵. […] C52 is evolutionarily conserved among all APCαs and covalently attaches PCB (FIGS. 6 and 10a). The C52S mutation eliminated smURFP fluorescence (FIG. 10b,c), and C52 remains the BV attachment site. […]

[2] = biological target: the molecule itself; test: native PAGE, self-association (homodimer)
Excerpt: as §1, §2

[3] = biological target: the molecule itself; test: stoichiometry column of the table of biophysical properties (self-association)

Protein	binding result [3]	also measured
B1	–	binding result [1]: binds
B2	–	binding result [2]: binds
B3	binds	–
B4	binds	–
